This is an account of results in publication PMC3438978.

The target in the first assay is derCD23 (monomeric CD23 protein) (human) (UniProt P06734). Kind of assay: SPR.
UniProt P06734, sequence (P06734 156-298): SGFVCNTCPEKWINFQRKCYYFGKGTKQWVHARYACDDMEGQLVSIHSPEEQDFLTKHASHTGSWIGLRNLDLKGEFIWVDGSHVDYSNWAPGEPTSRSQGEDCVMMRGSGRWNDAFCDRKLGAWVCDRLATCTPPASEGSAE
What is called Kd is the constant that tells how readily two partners part at equilibrium. On to “Recombinant human IgE-Fc (composed of domains Cϵ2-Cϵ4) (domain or fragment)”, for which the Kd stood at 2.4 µM.

The next assay addresses Recombinant human IgE-Fc (composed of domains Cϵ2-Cϵ4) (human). Kind of assay: SPR. In general terms: Surface plasmon resonance follows binding to a sensor surface in real time, without labels.
As to “derCD23 (monomeric CD23 protein) (from UniProt P06734 156-298) (domain or fragment)”, the Kd came out at 2.3 µM.

Another assay addresses derCD23 (monomeric CD23 protein) (human) (UniProt P06734). Put plainly: SPR. The source holds these as a separate data set.
On to IgE-Fc D347A (domain or fragment), for which the Kd was determined as 2.5 µM.

IgE-Fc D409A (domain or fragment): the Kd was found to be 26.3 µM.

IgE-Fc E412A (domain or fragment): the Kd is 24.2 µM.

Regarding IgE-Fc K352A (domain or fragment), the equilibrium dissociation constant (Kd) is 3.8 µM.

In turn, IgE-Fc K380A (domain or fragment) yielded a Kd of 13.3 µM.

As to IgE-Fc K435A (domain or fragment), the Kd stood at 5 µM.

With IgE-Fc P439A (domain or fragment), the dissociation constant (Kd) was 2.5 µM.

On to IgE-Fc Q535A (domain or fragment), for which the Kd was 2.5 µM.

As for IgE-Fc Q538A (domain or fragment), the Kd came out at 2.4 µM.

IgE-Fc R351A (domain or fragment) had a Kd of 2.6 µM.

For the substance IgE-Fc R376A (domain or fragment), the Kd was determined as 19.7 µM.

Substance “Recombinant human IgE-Fc (composed of domains Cϵ2-Cϵ4) (domain or fragment)” displayed a Kd of 2.3 µM.

For a further assay, the target named is Recombinant human IgE-Fc (composed of domains Cϵ2-Cϵ4) (human). Put plainly: SPR. This is another data set of the same source.
Turning to “derCD23 (monomeric CD23 protein) (from UniProt P06734 156-298) (domain or fragment)”, the equilibrium dissociation constant (Kd) worked out at 2.3 µM.

As for “derCD23 D192A (from UniProt P06734 1-321) (domain or fragment)”, the dissociation constant Kd was 4.3 µM.

For “derCD23 D227A (from UniProt P06734 1-321) (domain or fragment)”, the Kd turned out to be 30.9 µM.

Regarding “derCD23 D236A (from UniProt P06734 1-321) (domain or fragment)”, the dissociation constant Kd stood at 5.8 µM.

As to “derCD23 E257A (from UniProt P06734 1-321) (domain or fragment)”, the Kd came out at 26.7 µM.

On to derCD23 E265A (domain or fragment), for which the dissociation constant (Kd) was 2.5 µM.

In the case of “derCD23 K276A (from UniProt P06734 1-321) (domain or fragment)”, the Kd worked out at 10.9 µM.

Turning to “derCD23 L226A (from UniProt P06734 1-321) (domain or fragment)”, the Kd worked out at 6.6 µM.

For the substance “derCD23 R188A (from UniProt P06734 1-321) (domain or fragment)”, the Kd worked out at 25 µM.

On to “derCD23 R224A (from UniProt P06734 1-321) (domain or fragment)”, for which the Kd worked out at 26.2 µM.

As to “derCD23 Y189A (from UniProt P06734 1-321) (domain or fragment)”, the equilibrium dissociation constant (Kd) stood at 15.6 µM.
